In patent US11052132B2, “Methods and compositions for treating cystic fibrosis” (PHASEBIO PHARMACEUTICALS, INC., priority 2014, dated 2021):

B1: PB1120: long lasting, stable VIP therapeutic which includes ELP sequences; VIP-ELP fusion, SEQ ID NO: 20 (protein)
chain: HSDAVFTDNYTRLRKQMAVKKYLNSILNVPGVGVPGVGVPGGGVPGAGVPGVGVPGVGVPGVGVPGGGVPGAGVPGGGVPGVGVPGVGVPGGGVPGAGVPGVGVPGVGVPGVGVPGGGVPGAGVPGGGVPGVGVPGVGVPGGGVPGAGVPGVGVPGVGVPGVGVPGGGVPGAGVPGGGVPGVGVPGVGVPGGGVPGAGVPGVGVPGVGVPGVGVPGGGVPGAGVPGGGVPGVGVPGVGVPGGGVPGAGVPGVGVPGVGVPGVGVPGGGVPGAGVPGGGVPGVGVPGVGVPGGGVPGAGVPGVGVPGVGVPGVGVPGGGVPGAGVPGGGVPGVGVPGVGVPGGGVPGAGVPGVGVPGVGVPGVGVPGGGVPGAGVPGGGVPGVGVPGVGVPGGGVPGAGVPGVGVPGVGVPGVGVPGGGVPGAGVPGGGVPGVGVPGVGVPGGGVPGAGVPGVGVPGVGVPGVGVPGGGVPGAGVPGGGVPGVGVPGVGVPGGGVPGAGVPGVGVPGVGVPGVGVPGGGVPGAGVPGGGVPGVGVPGVGVPGGGVPGAGVPGVGVPGVGVPGVGVPGGGVPGAGVPGGGVPGVGVPGVGVPGGGVPGAGVPGVGVPGVGVPGVGVPGGGVPGAGVPGGGVPGWP
modifications: VIP ELP1-120
B2: PB1046: long lasting, stable VIP therapeutic which includes ELP sequences; VIP-ELP fusion, SEQ ID NO: 15 (protein)
chain: MHSDAVFTDNYTRLRKQMAVKKYLNSILNVPGVGVPGVGVPGGGVPGAGVPGVGVPGVGVPGVGVPGGGVPGAGVPGGGVPGVGVPGVGVPGGGVPGAGVPGVGVPGVGVPGVGVPGGGVPGAGVPGGGVPGVGVPGVGVPGGGVPGAGVPGVGVPGVGVPGVGVPGGGVPGAGVPGGGVPGVGVPGVGVPGGGVPGAGVPGVGVPGVGVPGVGVPGGGVPGAGVPGGGVPGVGVPGVGVPGGGVPGAGVPGVGVPGVGVPGVGVPGGGVPGAGVPGGGVPGVGVPGVGVPGGGVPGAGVPGVGVPGVGVPGVGVPGGGVPGAGVPGGGVPGVGVPGVGVPGGGVPGAGVPGVGVPGVGVPGVGVPGGGVPGAGVPGGGVPGVGVPGVGVPGGGVPGAGVPGVGVPGVGVPGVGVPGGGVPGAGVPGGGVPGVGVPGVGVPGGGVPGAGVPGVGVPGVGVPGVGVPGGGVPGAGVPGGGVPGVGVPGVGVPGGGVPGAGVPGVGVPGVGVPGVGVPGGGVPGAGVPGGGVPGVGVPGVGVPGGGVPGAGVPGVGVPGVGVPGVGVPGGGVPGAGVPGGGVPGVGVPGVGVPGGGVPGAGVPGVGVPGVGVPGVGVPGGGVPGAGVPGGGVPGWP
modifications: M-VIP ELP1-120

Key:
F508del-CFTR [1] = target: T1, F508del-CFTR (Homo sapiens, UniProt P13569, DEL508-508); test: Iodide efflux assay on JME/CF15 cells (rescue of F508del-CFTR function); assay type: cell-based; details: for effect on iodide efflux, alone / plateau concentration (iodide efflux rate) / EC50: JME/CF15 cells at 37° C.; for effect on iodide efflux, alone: acute treatment with 1 μM VX770 alone (FIG. 6A); for effect on iodide efflux in combination with VX-770: 350 nM PB1046 18 hours or 140 nM PB1120 24 hours, plus acute 1 μM VX-770 (FIG. 6B, C); for correct and/or potentiate the activity of F508del-CFTR (iodide efflux) compared with VX-809 and VX-661: 37° C., 900 nM VIP 24 h, 1 μM PB1120 24 h, 1.2 μM PB1046 18 h, versus 1 μM VX809 24 h, 3 μM VX661 24 h (FIG. 5); for plateau concentration (iodide efflux rate) / EC50: pre-incubated 2 hours at 30-3,500 nM, then cAMP activator cocktail, n=3-5; for EC50: read-out: EC50 (iodide efflux rate)
T1 construct: A human nasal epithelial cell line JME/CF15, derived from a Cystic Fibrosis patient homozygous for the F508del mutation; endogenous in cells; host or cells: JME/CF15 human nasal epithelial cell line (CF patient, F508del homozygous)
T1 sequence (P13569 with tags, fused parts or gaps DEL508-508): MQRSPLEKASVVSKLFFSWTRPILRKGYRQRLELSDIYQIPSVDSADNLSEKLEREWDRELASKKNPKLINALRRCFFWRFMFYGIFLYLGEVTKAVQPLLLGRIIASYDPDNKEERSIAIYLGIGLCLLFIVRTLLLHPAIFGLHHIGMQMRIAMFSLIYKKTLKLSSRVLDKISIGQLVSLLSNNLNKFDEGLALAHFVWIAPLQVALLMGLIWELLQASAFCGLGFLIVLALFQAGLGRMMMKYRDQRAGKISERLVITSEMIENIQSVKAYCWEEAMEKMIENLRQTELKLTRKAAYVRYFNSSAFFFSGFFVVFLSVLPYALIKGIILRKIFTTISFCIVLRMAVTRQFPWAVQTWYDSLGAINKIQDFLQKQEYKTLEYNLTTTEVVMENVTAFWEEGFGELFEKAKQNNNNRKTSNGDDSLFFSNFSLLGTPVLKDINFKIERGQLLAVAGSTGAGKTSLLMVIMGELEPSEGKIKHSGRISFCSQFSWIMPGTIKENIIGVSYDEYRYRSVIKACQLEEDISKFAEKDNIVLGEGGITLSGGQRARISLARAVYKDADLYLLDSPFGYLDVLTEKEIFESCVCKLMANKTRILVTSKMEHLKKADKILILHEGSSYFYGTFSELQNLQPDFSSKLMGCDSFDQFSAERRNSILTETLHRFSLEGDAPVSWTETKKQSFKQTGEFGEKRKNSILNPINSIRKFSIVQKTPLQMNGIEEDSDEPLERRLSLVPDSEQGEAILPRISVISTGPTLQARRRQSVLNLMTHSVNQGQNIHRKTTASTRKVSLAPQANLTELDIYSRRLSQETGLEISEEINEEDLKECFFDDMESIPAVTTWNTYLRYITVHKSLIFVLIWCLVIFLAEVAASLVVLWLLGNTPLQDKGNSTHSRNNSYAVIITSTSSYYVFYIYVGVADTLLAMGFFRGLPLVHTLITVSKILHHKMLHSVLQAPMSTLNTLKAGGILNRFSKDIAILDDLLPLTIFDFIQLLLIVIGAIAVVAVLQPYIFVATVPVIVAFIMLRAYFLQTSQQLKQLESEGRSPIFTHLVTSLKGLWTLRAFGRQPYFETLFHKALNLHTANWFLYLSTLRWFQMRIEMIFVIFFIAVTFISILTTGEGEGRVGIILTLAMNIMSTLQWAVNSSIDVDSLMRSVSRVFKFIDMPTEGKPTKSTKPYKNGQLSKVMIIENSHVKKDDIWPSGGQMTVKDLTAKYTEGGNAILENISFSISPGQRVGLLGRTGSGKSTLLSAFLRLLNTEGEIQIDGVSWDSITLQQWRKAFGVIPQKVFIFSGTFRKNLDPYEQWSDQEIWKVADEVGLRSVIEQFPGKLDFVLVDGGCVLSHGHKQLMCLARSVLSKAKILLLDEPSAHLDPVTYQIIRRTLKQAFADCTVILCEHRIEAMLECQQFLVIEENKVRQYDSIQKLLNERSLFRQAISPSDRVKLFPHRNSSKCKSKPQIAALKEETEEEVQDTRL
Method: A human nasal epithelial cell line JME/CF15, derived from a Cystic Fibrosis patient homozygous for the F508del mutation (Jefferson (1990)) was used to evaluate the effect of VIP compounds on CFTR protein function. Cells were cultured at 37° C. with at 5% CO2— 95% humidity in DMEM-F12 with 10% FBS and supplemented with transferrin (5 μg/ml), triiodothyronine (2 nM), insulin (5 μg/ml), hydrocortisone (1.1 μM), EGF (1.64 nM), epinephrine (5.5 μM), and adenine (18 μM). Cells were maintained at 37° C. and incubated with […] VIP, 1.2 μM PB1046 (SEQ ID NO: 15), or 1 μM PB1120 (SEQ ID NO: 20) for 18 or 24 hours before the assaying for iodide efflux. For comparison, cells were incubated with the CFTR correctors VX-809 (lumacaftor) or VX-661.
To evaluate the effect of test compounds on CFTR protein function, the activity of the CFTR chloride channel was determined by studying the efflux of iodide ions using an iodide sensitive electrode. Cells were incubated with NaI loading buffer (136 mM NaI, 3 mM KNO3, 2 mM Ca(NO3), 11 mM glucose, 20 mM HEPES, pH 7.4) for 1 hour at room temperature. Extracellular NaI solution was then removed and replaced with efflux buffer in which NaI was replaced with NaNO3. Samples were taken and replaced at 1 minute intervals. The first 3 samples taken before addition of the CFTR activation cocktail (time 0-2 min) were used to establish a stable baseline of ion efflux. CFTR activation cocktail (150 μM cpt-cAMP+1 mM IBMX+10 μM forskolin) was included in the efflux buffer from time 3 minutes. NaI concentration was then measured using an iodide sensitive electrode moved over each sample by a computerised autosampler and the NaI efflux rate constant k (min^−1) was calculated. Iodide efflux peaks (maximum efflux rate during stimulation—basal level) were compared.
Iodide efflux rates were measured on JME/CF15 cells maintained at 37° C. and pre-incubated with VIP, PB1046, or PB1120 at 30-3,500 nM for 2 hours. […] Rescued F508del-CFTR was stimulated by a cAMP activator cocktail added to the efflux buffer. […] CFTRinh172 (20 μM) was included in the incubation, confirming that the iodide efflux was mediated by CFTR.
To study the effects of administration of PB1120 or PB1046 together with CFTR potentiators or CFTR correctors, iodide efflux assays were performed as described in Example 1.

F508del-CFTR [2] = test: Immunoblotting / immunostaining of F508del-CFTR maturation and membrane expression in JME/CF15 cells; assay type: cell-based, human; details: JME/CF15 cells at 37° C., incubated with compound for 24 hours (FIG. 4)
Method: JME/CF15 cells were immunostained for CFTR (A).
Immunoblotting was performed to visualize the […] of the F508del-CFTR in the epithelial cells treated with VIP, PB1120, or PB1046.

Row | Molecule | iodide efflux activity rescued by VIP therapeutics when the CFTR inhibitor is included (F508del-CFTR [1]; CFTRinh172 20 μM, 30 minutes before and during the efflux experiments (FIG. 3)) | effect on iodide efflux, alone (F508del-CFTR [1]) | effect on iodide efflux, alone (F508del-CFTR [1]; listed as VX770) | effect on iodide efflux in combination with VX-770 (F508del-CFTR [1]) | effect on iodide efflux in combination with VX-809 (F508del-CFTR [1]; 1 μM PB1120 and 1 μM VX-809 for 24 hours (FIG. 7)) | correct and/or potentiate the activity of F508del-CFTR (iodide efflux) compared with VX-809 and VX-661 (F508del-CFTR [1]) | plateau concentration (iodide efflux rate) (F508del-CFTR [1]) [nM] | EC50 (F508del-CFTR [1]) [nM] | F508del-CFTR maturation and membrane expression (F508del-CFTR [2])
1 | O=C(O)c1ccc(/C=C2\SC(=S)N(c3cccc(C(F)(F)F)c3)C2=O)cc1 [CFTRinh172, reference compound] | significantly reduced |  |  |  |  |  |  |  | 
2 | CC(C)(C)c1cc(C(C)(C)C)c(NC(=O)c2c[nH]c3ccccc3c2=O)cc1O [VX-770, ivacaftor, reference compound] |  | no effect | did not produce any significant stimulation |  |  |  |  |  | 
3 | B1 |  |  |  | synergistic effect | synergism | equivalent or greater extent than VX-809 and VX-661 | 1000 | 140 | corrected
4 | B2 |  |  |  | synergistic effect |  | equivalent or greater extent than VX-809 and VX-661 | 1200 | 355 | corrected
